For the assay, the target named is T1, GST-tagged Dhh1(46–461) (S. cerevisiae, UniProt P39517 46-461).
T1 sequence (looked up): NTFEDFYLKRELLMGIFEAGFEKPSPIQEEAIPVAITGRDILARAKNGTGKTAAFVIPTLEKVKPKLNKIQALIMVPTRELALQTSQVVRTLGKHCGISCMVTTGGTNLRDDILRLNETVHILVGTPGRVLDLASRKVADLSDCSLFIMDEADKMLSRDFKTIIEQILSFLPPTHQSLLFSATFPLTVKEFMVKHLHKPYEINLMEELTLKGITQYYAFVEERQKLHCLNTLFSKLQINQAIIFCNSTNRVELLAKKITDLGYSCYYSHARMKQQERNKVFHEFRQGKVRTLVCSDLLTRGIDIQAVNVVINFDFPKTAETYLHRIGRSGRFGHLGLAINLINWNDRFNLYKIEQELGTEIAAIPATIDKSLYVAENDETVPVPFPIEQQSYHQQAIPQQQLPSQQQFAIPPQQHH
Put plainly: pull-down.

B1: His-Dcp2(1–300)-Flag (domain or fragment, S. cerevisiae, UniProt P53550 1-300, looked up)
chain: MSLPLRHALENVTSVDRILEDLLVRFIINCPNEDLSSVERELFHFEEASWFYTDFIKLMNPTLPSLKIKSFAQLIIKLCPLVWKWDIRVDEALQQFSKYKKSIPVRGAAIFNENLSKILLVQGTESDSWSFPRGKISKDENDIDCCIREVKEEIGFDLTDYIDDNQFIERNIQGKNYKIFLISGVSEVFNFKPQVRNEIDKIEWFDFKKISKTMYKSNIKYYLINSMMRPLSMWLRHQRQIKNEDQLKSYAEEQLKLLLGITKEEQIDPGRELLNMLHTAVQANSNNNAVSNGQVPSSQE
On to B1, for which the binding result was “binds”.

B2: His-Dcp2(102–300)-Flag (domain or fragment, S. cerevisiae, UniProt P53550 102-300, looked up)
chain: SIPVRGAAIFNENLSKILLVQGTESDSWSFPRGKISKDENDIDCCIREVKEEIGFDLTDYIDDNQFIERNIQGKNYKIFLISGVSEVFNFKPQVRNEIDKIEWFDFKKISKTMYKSNIKYYLINSMMRPLSMWLRHQRQIKNEDQLKSYAEEQLKLLLGITKEEQIDPGRELLNMLHTAVQANSNNNAVSNGQVPSSQE
With B2, the binding result was “binds”.
